Measured values reported in publication PMC5606203.

Legend:
Assay in all cases: initial rates, colorimetric 2-naphthylamide release
[1] = substrate: C[C@H](N)C(=O)N[C@@H](CCCNC(=N)N)C(=O)Nc1ccc2ccccc2c1; format: biochemical, Physcomitrium patens; settings: 25 °C, pH 7.4, Tris-HCl (I = 0.01), 75 µM CoCl2, DPP III site
[2] = substrate: N=C(N)NCCC[C@H](NC(=O)[C@@H](N)CCCNC(=N)N)C(=O)Nc1ccc2ccccc2c1; format: biochemical, Physcomitrium patens; settings: 25 °C, pH 7.4, Tris-HCl (I = 0.01), 75 µM CoCl2, DPP III site
[3] = substrate: C[C@H](N)C(=O)N[C@@H](CCCNC(=N)N)C(=O)Nc1ccc2ccccc2c1; format: biochemical, Arabidopsis thaliana; settings: 25 °C, pH 7.9, Tris-HCl (I = 0.01), 75 µM CoCl2, DPP III site
[4] = substrate: N=C(N)NCCC[C@H](NC(=O)[C@@H](N)CCCNC(=N)N)C(=O)Nc1ccc2ccccc2c1; format: biochemical, Arabidopsis thaliana; settings: 25 °C, pH 7.9, Tris-HCl (I = 0.01), 75 µM CoCl2, DPP III site
[5] = substrate: N=C(N)NCCC[C@H](NC(=O)[C@@H]1CCCN1)C(=O)Nc1ccc2ccccc2c1; format: biochemical, Arabidopsis thaliana; settings: 25 °C, pH 7.9, Tris-HCl (I = 0.01), 75 µM CoCl2, DPP III site

B1: PpND (Physcomitrium patens) (protein)
chain: MEGFQEEFSLGECLDVLTAAGLRTGDVKKRHLVHADGDYHRAVHVWLFVESTQELVLQKRADCKDSWPGLWDISSAGHISAGDTSLLTARRELQEELGITLPADAFEFLFDYLQECVINGGKYINNEYNDVYLVTLVDHIPVEAFTLQETEVSAVKYMKWQDYEDAVRKEDSSYVPCDVDGGYSALFSALRRRYEVDTSAKLEELQMHINRYVPVEIHGETTGLSKGDLLALSDTIRAAKLLDRIFLEQEWATNPALKDSLQAASGKSELDRLKFAYYLINKSPWSILDENDAFLTTADSAIQIAEGAVDESVTWGGKVRYRAAFPVEKAPGANFYPVDMDKEEFQAWKDGLDKGQQADATSFFTTIRRSGDIHDADGAKVHDLKIVPYSKEYATILKEASYLLHKAGDSAENPSLKRLLKAKADAFLSNDYYESDIAWMELDSPLDVTIGPYETYEDGLFGYKATFEAFIGIRDDEATQRLKLFSHNLQEMEDNLPMDDEYKSKTVTFSPIRVIQLLYNSGDVKGPQTVAFNLPNDDRIVKERGTAMVMLKNISQAKFDYILLPIANVCVEASQRGAVDFDSFFTHTICHECCHGIGPHNIVTPDGRASTVRLELQEVYSAIEEAKADIVGLWALHFLVDKGLLPRSLENTMYVSFLAGCFRSIRFGLEEAHGKGQALQFNFILEKGGFSYHPDGTFSVDYTKVRQCVEDLSRLILTIEAKGDKAGAEALLAKYAALTPQLQQSFDALQDVQVPVDIFPTFKLLDDIKL
Km [1]: 17.21 ± 0.75 µM | kcat [1]: 0.633 ± 0.157 min⁻¹ | Km [2]: 10.63 ± 1.72 µM | kcat [2]: 0.822 ± 0.180 min⁻¹

B2: AtND (Arabidopsis thaliana) (protein)
chain: MAEEHFDVLTKSGEKTGVSKPRGEVHRDGDYHRAVHVWIFVETTQQLLLQLRSDDKDSWPGQWDISSAGHISAGDTSLLSAQRELEEELGVKLPKDAFEKIFVFLQECVTNDGKFINNEFNDVYLVTILHPIPLEAFTLQKEEVSAVKYVPYEEYRNFLSKEDPAYVPYDVNGEYGKLFDIIRQRCQVNTEARSLSLQKQLQRYSPVTLEAKLTELSEADQKALGLIVKAAKIMDDIFYEQVWNSNPALRDWLKDHANASKLDKLKWDYFTINKSPWSSLDENEAFLSTADSAVKLLPGATKAIAGWKGLEYRAAFPVTKPPGANFYPPDMDKMEFTLWLNGLTEEQKHAATGFFSVIKRRSEANLDASDHLASSTKKLPDSNSDLYSIPYSEIYRPFLKKASEFLQKAGDLVSSPSLKKLLHSKAEAFLSNEYYESDIAWMDLDSKLDITIGPYETYEDEIFGYKATFETFIGIRDDKATADLKLFGDNLKLLEDNLPLESVYKSTDVSAAPIRVIQLIYNSGDVKGPQTVAYNLPNDEKIVKDRGTSMVMLKNVQEAKFEHILKPIAEITISKEQRGLVDFDSFFTHTICHECCHGIGPHTITLPGGQTSTVRKELQEVHSAMEEAKADIVGLWALKFLITKGLLSKSMVESMYVSFLAGCFRSIRFGLTEAHGKGQALQFNYLYEKGAFVFHEDSTFSVDFAKIEGAVESLSHEILTIQGKGDKNAATLLLNKYCTITGPLKTALENLERVKVPVDISPTFPLAEALMN
Km [3]: 5.0 ± 0.3 µM | kcat [3]: 0.0415 ± 0.0035 s⁻¹ | kcat/Km [3]: 8300 M⁻¹ s⁻¹ | Km [4]: 3.25 ± 1.12 µM | kcat [4]: 0.002 ± 1.67e-05 s⁻¹ | kcat/Km [4]: 615 M⁻¹ s⁻¹ | Km [5]: 40.85 ± 12.09 µM | kcat [5]: 0.0372 ± 0.005 s⁻¹ | kcat/Km [5]: 908 M⁻¹ s⁻¹
